The values that follow come from patent US10941182 (Amgen, dated 2021).

Common to all, as to assay: cell-based or functional assay
Assay [1] addresses T1, human APJ receptor (human, UniProt P35414 1-380).
T1 sequence (looked up): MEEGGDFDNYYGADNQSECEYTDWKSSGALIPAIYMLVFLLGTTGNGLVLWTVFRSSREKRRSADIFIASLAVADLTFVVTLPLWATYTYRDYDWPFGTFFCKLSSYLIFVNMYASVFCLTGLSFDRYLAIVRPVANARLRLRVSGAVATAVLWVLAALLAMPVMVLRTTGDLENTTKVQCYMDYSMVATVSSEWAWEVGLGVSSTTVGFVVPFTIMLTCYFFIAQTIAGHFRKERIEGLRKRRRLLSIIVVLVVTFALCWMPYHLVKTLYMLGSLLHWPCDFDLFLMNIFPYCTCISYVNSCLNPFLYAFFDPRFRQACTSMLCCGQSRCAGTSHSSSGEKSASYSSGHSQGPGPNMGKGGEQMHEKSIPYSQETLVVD

The target in assay [2] is T2, rat APJ receptor (rat, UniProt Q9JHG3 1-377).
T2 sequence (looked up): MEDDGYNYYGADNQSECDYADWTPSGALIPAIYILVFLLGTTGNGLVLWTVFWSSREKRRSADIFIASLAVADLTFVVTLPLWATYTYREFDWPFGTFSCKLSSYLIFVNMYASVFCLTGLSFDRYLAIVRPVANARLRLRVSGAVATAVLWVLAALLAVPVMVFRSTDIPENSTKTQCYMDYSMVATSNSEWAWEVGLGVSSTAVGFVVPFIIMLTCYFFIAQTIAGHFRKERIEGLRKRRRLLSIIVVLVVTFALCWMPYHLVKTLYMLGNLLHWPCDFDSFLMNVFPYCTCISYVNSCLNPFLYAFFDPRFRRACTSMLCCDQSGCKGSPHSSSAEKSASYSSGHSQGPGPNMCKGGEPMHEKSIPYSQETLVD

Assay [3] addresses T3, human APJ receptor (human, UniProt P35414 1-380).
T3 sequence (looked up): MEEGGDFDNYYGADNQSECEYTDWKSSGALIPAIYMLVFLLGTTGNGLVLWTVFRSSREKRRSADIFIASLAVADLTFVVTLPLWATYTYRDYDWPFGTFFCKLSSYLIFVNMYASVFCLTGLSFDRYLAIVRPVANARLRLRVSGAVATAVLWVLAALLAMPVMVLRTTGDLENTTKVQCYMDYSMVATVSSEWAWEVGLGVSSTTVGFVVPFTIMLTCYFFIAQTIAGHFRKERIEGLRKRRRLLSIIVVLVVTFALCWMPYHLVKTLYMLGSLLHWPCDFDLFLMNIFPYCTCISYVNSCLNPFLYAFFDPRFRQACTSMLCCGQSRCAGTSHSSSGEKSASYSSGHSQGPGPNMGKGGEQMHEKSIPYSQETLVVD
The source holds these as a separate data set.

Assay [4] concerns the target T4, rat APJ receptor (rat, UniProt Q9JHG3 1-377).
T4 sequence (looked up): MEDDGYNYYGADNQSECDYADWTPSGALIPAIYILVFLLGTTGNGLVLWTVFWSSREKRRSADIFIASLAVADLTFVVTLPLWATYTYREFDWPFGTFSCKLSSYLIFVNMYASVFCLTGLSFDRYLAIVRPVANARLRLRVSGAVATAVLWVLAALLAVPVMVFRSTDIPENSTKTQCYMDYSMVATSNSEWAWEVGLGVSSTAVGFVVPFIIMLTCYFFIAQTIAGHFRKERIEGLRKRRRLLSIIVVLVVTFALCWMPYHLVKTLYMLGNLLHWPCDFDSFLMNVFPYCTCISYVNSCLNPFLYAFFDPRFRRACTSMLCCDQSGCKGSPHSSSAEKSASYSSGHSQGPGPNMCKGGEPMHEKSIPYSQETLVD
The source holds these as a separate data set.

Starred links: 1 amine or outer side, 2 acyl side, 3 side chain; linkers in the order of their positions; H or OH if unused. Non-standard residues stand in square brackets, D forms with d. Primed or numbered codes have the meaning given here. *: point of attachment. NPeg9 = PEG amine from Pra click product: 32-amino-3,6,9,12,15,18,21,24,27,30-decaoxadotriacontyl, NCCOCCOCCOCCOCCOCCOCCOCCOCCOCCOCC*; Pra′ = its azide, alkyne or alkene has reacted where a group follows in round brackets; PEG12 = NCCOCCOCCOCCOCCOCCOCCOCCOCCOCCOCCOCCOCCC(=O)O; Oic = O=C(O)[C@@H]1C[C@@H]2CCCC[C@@H]2N1; Phe(4-Cl) = N[C@@H](Cc1ccc(Cl)cc1)C(=O)O; γGlu = O=C(O)[C@H](CCC(=O)[*:2])N[*:1]; NMeR = CN[C@@H](CCCNC(=N)N)C(=O)O; Tridecanoyl = CCCCCCCCCCCCC(=O)*; hArg = N=C(N)NCCCC[C@H](N)C(=O)O; Cha = N[C@@H](CC1CCCCC1)C(=O)O; pGlu = O=C1CC[C@@H](C(=O)O)N1; Nle = CCCC[C@H](N)C(=O)O; AEEA = NCCOCCOCC(=O)O; Aib = CC(C)(N)C(=O)O

B1: modified apelin polypeptide SEQ ID NO: 539 (peptide)
peptide: Tridecanoyl-[γGlu][PEG12][dQ]RP[NMeR][Cha]SHKG[Oic][Nle][Aib][Phe(4-Cl)]-OH
SMILES: CCCCCCCCCCCCC(=O)N[C@@H](CCC(=O)NCCOCCOCCOCCOCCOCCOCCOCCOCCOCCOCCOCCOCCC(=O)N[C@H](CCC(N)=O)C(=O)N[C@@H](CCCNC(=N)N)C(=O)N1CCC[C@H]1C(=O)N(C)[C@@H](CCCNC(=N)N)C(=O)N[C@@H](CC1CCCCC1)C(=O)N[C@@H](CO)C(=O)N[C@@H](Cc1c[nH]cn1)C(=O)N[C@@H](CCCCN)C(=O)NCC(=O)N1[C@H](C(=O)N[C@@H](CCCC)C(=O)NC(C)(C)C(=O)N[C@@H](Cc2ccc(Cl)cc2)C(=O)O)C[C@@H]2CCCC[C@@H]21)C(=O)O
With B1, in assay [1], the “EC50 Human APJ Receptor (µM), GTPγS assay” value (“EC50 Human APJ Receptor (µM)” below) amounted to 0.000735 µM. Moreover, in assay [2], the “EC50 Rat APJ Receptor (µM), GTPγS assay” value is 0.00354 µM.

B2: modified apelin polypeptide SEQ ID NO: 346 (peptide)
peptide: Tridecanoyl-[γGlu][AEEA][AEEA]RQRPK[Cha]AA[Nle]G[Oic][Nle]P[Phe(4-Cl)]-OH
SMILES: CCCCCCCCCCCCC(=O)N[C@@H](CCC(=O)NCCOCCOCC(=O)NCCOCCOCC(=O)N[C@@H](CCCNC(=N)N)C(=O)N[C@@H](CCC(N)=O)C(=O)N[C@@H](CCCNC(=N)N)C(=O)N1CCC[C@H]1C(=O)N[C@@H](CCCCN)C(=O)N[C@@H](CC1CCCCC1)C(=O)N[C@@H](C)C(=O)N[C@@H](C)C(=O)N[C@@H](CCCC)C(=O)NCC(=O)N1[C@H](C(=O)N[C@@H](CCCC)C(=O)N2CCC[C@H]2C(=O)N[C@@H](Cc2ccc(Cl)cc2)C(=O)O)C[C@@H]2CCCC[C@@H]21)C(=O)O
In the case of B2, the “EC50 Human APJ Receptor (µM)” value in assay [1] is 0.00277 µM. Besides, in assay [2], the “EC50 Rat APJ Receptor (µM), GTPγS assay” value is 0.00246 µM.

B3: modified apelin polypeptide SEQ ID NO: 511 (peptide)
peptide: XXXQRPRLSHKGPXPF
modifications: {TetDDA} [AC4Abu] [Aeea] [Aeea] Q R P [NMeArg] L S H K G P [Nle] P [4-Cl-F] {COOH}: N-terminal tetradecanedioyl (TetDDA)-gammaGlu (AC4Abu)-Aeea-Aeea; NMeArg, Nle, 4-Cl-F non-canonical; free C-terminal acid
Consider B3, for which the “EC50 Rat APJ Receptor (µM), GTPγS assay” value in assay [2] amounted to 0.000968 µM.
Regarding Tridecanoyl-D[AEEA][AEEA][dQ]RP[NMeR][Cha]SHKG[Oic][Nle][Aib][Phe(4-Cl)]-OH [modified apelin polypeptide SEQ ID NO: 546], the “EC50 Human APJ Receptor (µM)” value in assay [1] came to 0.000478 µM. For the same molecule, the “EC50 Rat APJ Receptor (µM), GTPγS assay” value in assay [2] stood at 0.00123 µM.

B4: modified apelin polypeptide SEQ ID NO: 341 (peptide)
peptide: Tridecanoyl-[γGlu][AEEA][AEEA]RQRPK[Cha]SA[Nle]G[Oic][Nle]P[Phe(4-Cl)]-OH
SMILES: CCCCCCCCCCCCC(=O)N[C@@H](CCC(=O)NCCOCCOCC(=O)NCCOCCOCC(=O)N[C@@H](CCCNC(=N)N)C(=O)N[C@@H](CCC(N)=O)C(=O)N[C@@H](CCCNC(=N)N)C(=O)N1CCC[C@H]1C(=O)N[C@@H](CCCCN)C(=O)N[C@@H](CC1CCCCC1)C(=O)N[C@@H](CO)C(=O)N[C@@H](C)C(=O)N[C@@H](CCCC)C(=O)NCC(=O)N1[C@H](C(=O)N[C@@H](CCCC)C(=O)N2CCC[C@H]2C(=O)N[C@@H](Cc2ccc(Cl)cc2)C(=O)O)C[C@@H]2CCCC[C@@H]21)C(=O)O
On to B4, for which the “EC50 Human APJ Receptor (µM)” value in assay [1] is 0.000561 µM. The “EC50 Rat APJ Receptor (µM), GTPγS assay” value in assay [2] is 0.00127 µM.
Regarding [pGlu]RP[hArg][Cha][Pra′](NPeg9)HKG[Oic][Nle]P[Phe(4-Cl)]-OH [apelin polypeptide SEQ ID NO: 96], the “EC50 Human APJ Receptor” value in assay [3] was 2.02 nM. Also, the “EC50 Rat APJ Receptor” value in assay [4] came to 14.6 nM.

B5: modified apelin polypeptide SEQ ID NO: 537 (peptide)
peptide: Tridecanoyl-E[AEEA][AEEA][dQ]RP[NMeR][Cha]SHKG[Oic][Nle][Aib][Phe(4-Cl)]-OH
SMILES: CCCCCCCCCCCCC(=O)N[C@@H](CCC(=O)O)C(=O)NCCOCCOCC(=O)NCCOCCOCC(=O)N[C@H](CCC(N)=O)C(=O)N[C@@H](CCCNC(=N)N)C(=O)N1CCC[C@H]1C(=O)N(C)[C@@H](CCCNC(=N)N)C(=O)N[C@@H](CC1CCCCC1)C(=O)N[C@@H](CO)C(=O)N[C@@H](Cc1c[nH]cn1)C(=O)N[C@@H](CCCCN)C(=O)NCC(=O)N1[C@H](C(=O)N[C@@H](CCCC)C(=O)NC(C)(C)C(=O)N[C@@H](Cc2ccc(Cl)cc2)C(=O)O)C[C@@H]2CCCC[C@@H]21
As for B5, the “EC50 Human APJ Receptor (µM)” value in assay [1] is 0.00028 µM. Besides, the “EC50 Rat APJ Receptor (µM), GTPγS assay” value in assay [2] was 0.00108 µM.
